Patent US10801027B2, “Inhibitors of SRSF1 to treat neurodegenerative disorders” (University of Sheffield, priority 2016, dated 2020)

Experiments:
G4C2×38 transcripts = experiment: Cytoplasmic fractionation and qRT-PCR of G4C2×38 transcripts in N2A cells; type: cell-based, mouse
Method: Neuro-2a cells were split into each well of 6 well plates (2×10^6 cells/well) and transfected for 72 hours with 1 μg pcDNA6.2-GW/EmGFP-Control miR RNAi, pcDNA6.2-GW/EmGFP-mouse SRSF1 miR1+2 RNAi, p3×FLAG/SRSF1 (11-196), or p3×FLAG/SRSF1 (11-196)-m4 and 1 μg pcDNA 3.1/RAN-G4C2×38-sense or RAN-C4G2×39-antisense using 3 μg PEI/1 μg DNA and one tenth medium volume OptiMEM. iNeurons were cultured in 6-well plates and transduced with 5MOI human LV-SRSF1-RNAi lentivirus for 5 days.
Cytoplasmic fractionation was performed as follows. Cells were removed from the plate using DEPC PBS and pelleted by centrifugation at 800×g for 5 minutes. Cell pellets were quickly washed with hypotonic lysis buffer (10 mM HEPES pH 7.9, 1.5 mM MgCl2, 10 mM KCl, 0.5 mM DTT). Cell pellets were then lysed in hypotonic lysis buffer containing 0.16 U/μL Ribosafe RNase inhibitors (Bioline), 2 mM PMSF (Sigma) and […]™ Protease Inhibitor Cocktail tablets, EDTA free (Sigma) according to manufacturer's instructions. Cells were lysed gently using a cut P1000 tip ensuring no physical force was exerted on the cell pellet. For fly tissue, da-GAL4 was used to drive transgene expression in all tissues, and 10 third instar larvae were homogenised and lysed using the same buffer and a dounce homogenizer. The lysate then underwent differential centrifugation (1,500 g, 3 min, 4° C. then 3,500 g […], 8 min, 4° C. and then 17,000 g, 1 min, 4° C.) transferring the supernatant to a fresh tube after each centrifugation. The supernatant was then added to PureZOL (Biorad) to extract RNA. […]
Following RNA quantification, 2 μg RNA was converted to cDNA using BioScript™ Reverse Transcriptase (Bioline). qRT-PCR primers were designed using Primer-BLAST (NCBI) and validated using a 1 in 4 serial template dilution series (standard curve with R^2>0.97). qRT-PCR reactions were performed in duplicate for 3 independent biological repeats using the Brilliant III Ultra-Fast SYBR® Green QPCR Master Mix (Agilent Technologies) on a MX3000P QPCR system (Statagene). qRT-PCR data was analysed using MxPro (Stratagene) and GraphPad Prism (Version 6). […]

N2A cells = experiment: MTT cell proliferation assay; type: cell-based, mouse; conditions: G4C2×38 or C4G2×39 plasmids, 72 h
Method: Neuro-2a (N2A) cells were split into each well of a 24 well plate (30,000 cells/well). Each plate contained 4 wells with only media to serve as a blank and 4 wells/treatment. Cells were transfected for 72 hours with either 500 ng pcDNA 3.1, pcDNA 3.1/RAN-G4C2×15 RAN-G4C2×38-sense, RAN-C4G2×15 or RAN-C4G2×39-antisense; or 250 ng pcDNA6.2-GW/EmGFP-Control miR RNAi, pcDNA6.2-GW/EmGFP-mouse SRSF1 miR1+2 RNAi, p3×FLAG/SRSF1 (11-196), or p3×FLAG/SRSF1 (11-196)-m4 and 250 ng pcDNA 3.1, pcDNA 3.1/RAN-G4C2×38-sense or RAN-C4G2×39-antisense.
[…] Thiazolyl Blue Tetrazolum Bromide reagent (MTT) was added to each well and incubated in the dark at […] for 1 hour. Cells were subsequently lysed with equal volume MTT lysis buffer (20% SDS, 50% Dimethylformamide (DMF)) and incubated, shaking, at room temperature for 1 hour. Absorbance at 595 was then assessed with a PHERAstar FS (BMG Labtech). Experiments were performed in triplicate for each treatment. Absorbance data was analysed using PHERAstar MARS (BMG Labtech) and GraphPad Prism (version 6).

B1: SRSF1-m4: quadruple SRSF1 point mutant aa11-196, dominant negative, does not interact with TAP/NXF1 (protein)
chain: AGNNDCRIYVGNLPPDIRTKDIEDVFYKYGAIRDIDLKNRRGGPPFAFVEFEDPRDAEDAVYGRDGYDYDGYRLRVEFPASGAGTGRGGGGGGGGGAPRGRYGPPSAASENRVVVSGLPPSGSWQDLKDHMREAGDVCYADVYRDGTGVVEFVRKEDMTYAVRKLDNTKFRSHEGETAYIRVKVDG
modifications: left off: small tags and cut ends
- cytoplasmic repeat transcript levels normalized to total levels (G4C2×38 transcripts; G4C2×38, RNAi vs Ctrl-RNAi, SRSF1-m4 vs SRSF1): marked reduction
- cytoplasmic levels of G4C2×38 transcripts (G4C2×38 transcripts; normalized to U1 snRNA): markedly reduced
- total levels of G4C2×38 transcripts (G4C2×38 transcripts; normalized to U1 snRNA): not significantly altered
- neurotoxicity mediated by expression of the C9ORF72 repeat transcripts (N2A cells): suppress the neurotoxicity
